A short description of this data set: yeast display, Sf9 membrane polyspecificity reagent, FACS + sequencing; frameworks hold sequencing errors. The gist of the method: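 Sorting gates, low and high (top ~1%), were placed on anti-HA fluorescence to track expression and on streptavidin fluorescence to track reagent binding. A clone's polyreactivity label is taken from the gate it came out of. The reagent was 10% biotinylated, detergent-solubilized Sf9 membrane, applied for 1 hour at 4 °C to galactose-induced yeast display cells.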
For “QVQLVESVGGLVQAGVSLRLSSAASGSTLKQYAMGWFRQSPGKERELVGAITRSGSSTYYADSVKGRFTISRDNAKNTVYLPMNRLKREDTAVYYCDVGCWKGDYYWGLGTQVTVSS”, the “polyreactivity (PSR sort gate)” value is given as “high polyreactivity”.

“QVQLVESVGGLVQEGGTLRLSCAASGSTFEVYTMGWYRQAPGKERELVAAITKNGGTTYYADSVKGRFTISRDNAKNTVYLQMNSLKPEDTAVYYCAVYYYSGYYYWDYYWGQGTQVTVSS”: the “polyreactivity (PSR sort gate)” value was “low polyreactivity”.

Turning to “QVQLVESVGVLVQEGGSLRLSSAASGGSLPRYAMGWYRQAPGKEMELVAVITRGGSTYYADSVKGRFTISRDNAKNTVYLQMIRLIPEDTAVYYFAKYRYQTGIFYYWGQGTQVTVSS”, the “polyreactivity (PSR sort gate)” value is on record as “high polyreactivity”.

As to “QVQLVESVLGLVQAGGSLRFSCAASGSTIVRYAMVWYRPAPGKERELVAAISSSGATTYYADSVKGRFTISRDNAKNTVYLQMNSLKPEYTAVYYCDKYCRATRGLDNYWGQGTQVTVSS”, the “polyreactivity (PSR sort gate)” value is on record as “high polyreactivity”.

For the sequence “QVQLVESVRGLVQAGGSLPLSCAASGIIISSYAIGWYRQAPGKESEMVADIRSGGSTNYADSVKGRFTISRDNAKNNVYLQMNSLKPEDTAVYYCIADTFQWWDIADVYVIVKYGYWGQGTQVTVSS”, the “polyreactivity (PSR sort gate)” value is recorded as “low polyreactivity”.

Turning to “QVQLVESVRGLVQAGGSLRLSCDASAFIFRSYAMGWNRQAPGKERELVAVISRRGVNTHYADSVKGRFSISRDNAKNTVYLQINSLKPEDTAVYYCAAELSYRGYPYDYWGQGTQVTVSS”, the “polyreactivity (PSR sort gate)” value was “high polyreactivity”.

Turning to “QVQLVESVVGLVQEGGSLRFSCAASASTLDSNPIGWYRQAPGKEREVVAAITSGGSTYYADSVKGRFTISRDNAKNTVYLQMNSLKPEDSAVYYCATAWYLGRYRSLGYWGQGTQVTVSS”, the “polyreactivity (PSR sort gate)” value was “high polyreactivity”.

With “QVQLVESVVGLVQPRGSLRLSSASSGRTFRQYAMGRYRQAPGKERDLVAAIRTNGGRTYYADSVKGRFTISRDNAKNTVYLQMNSQKPEDTAVYYCAVYAFVQGVLFDYWGQGTQVTVSS”, the “polyreactivity (PSR sort gate)” value is reported as “high polyreactivity”.

Consider “QVQLVESVVVLVQAGGSLRLSCAASGFTIPFYAMGWYRQARGKERDLVAAISQSGVRTYYADSVKGRFTISRDNAKYTVYLQMKSLKPEDTAVYFCNVAYRGALDIHSYWYPSEYWGQGTQVTVSS”, for which the “polyreactivity (PSR sort gate)” value was “high polyreactivity”.

“QVQLVESWGALVQAGGSLRLSCAASGSTFGSNAMGWYRQAPGKERELVAAITYSGGRTYYADSVKGRFTISRDNAKNTVYLQMNSLTPEDTAVYYCAATFGFFYYQYDYWGQGTQVTVSS”: the “polyreactivity (PSR sort gate)” value is “low polyreactivity”.

On to “QVQLVESWGALVQAGGSLRLSCAASGSTFGYYAMGWYRQAPGKDRELVAAITRSGGSTSYADSVTGRFTISRDNAKNTVYLQMNSLKPEATAVYYCAARFYRPYYARQGYNYWGQGTKVTVSS”, for which the “polyreactivity (PSR sort gate)” value is “high polyreactivity”.

For “QVQLVESWGGLFQAGGRLRLSSAASGFTFPRYAMGWYRHSPGKERELVAAISRGGSTNYADSVKGRFTISRDNAMNTVYLQMNSLKPEVTAVYYCNVRLEYRYYRGDYWGQGTQVTVSS”, the “polyreactivity (PSR sort gate)” value was “high polyreactivity”.

Regarding “QVQLVESWGGLVQAGGSHRLSCSASGTILGDYGMGWYRQAPGKEREMVGAITWNGDSTYYADSVKGRFTISRDNAKNTVYLQMNSLKPEDTAVYYCAADLKDYKYYPWYGYWGQGTQVTVSS”, the “polyreactivity (PSR sort gate)” value was “low polyreactivity”.

As to “QVQLVESWGGLVQAGGSLHLSCAASGSTFQEYAMGWYRQAPGKERELVASIRWSGGRTYYADSVKGRFTISRDNAKNTVYLQMNSLKPEDTAFYYCAAGQWWYQVRFDYWGQGTQVTVSS”, the “polyreactivity (PSR sort gate)” value is “low polyreactivity”.

In the case of “QVQLVESWGGLVQAGGSLRLRCAASGRTIDYNAIGWYRQAPRKEREFVADISNGGTTSYADSVKGSFTFSRDNAKNTVYLHMNSLKPEVTAVYYCATLYDWSSFANSYWYFGWEEDYWGQGTQVTVSS”, the “polyreactivity (PSR sort gate)” value was “low polyreactivity”.

In the case of “QVQLVESWGGLVQAGGSLRLSCAASGHTFREKAMGWYRQAPGKERELLAAITSSGRTYYADSVKGRFTISRDNAKNTVYLQMNRQKPEDTAVYYCAADYWYVYPRYNPGDYWGQGSQVTVSS”, the “polyreactivity (PSR sort gate)” value is recorded as “high polyreactivity”.

With “QVQLVESWGGLVQAGGSLRLSCAASGIIFVSNAMGWYRQATGKERELVATINWSDDSTYYADSVKGRFTISRDNAKNTVYLQMNSLKPEDTAVYYCAADDYAVDYSYYYNDEYDYWGQGTQVTVSS”, the “polyreactivity (PSR sort gate)” value is “low polyreactivity”.

On to “QVQLVESWGGLVQAGGSLRLSCAASGIIRSNAMGWYRQAPGKERELVAVISSSGGRTYYADSVKGRFTISRDNAKNTVYLQMNSLKPEDTAVYYCAAQVQVGAFSYYYWGQGTQVTVSS”, for which the “polyreactivity (PSR sort gate)” value is listed as “high polyreactivity”.

On to “QVQLVESWGGLVQAGGSLRLSCAASGITFTVYAMGWYRQPPGKERELVAAITRGTSTYADSVKGRFTISRDNAKNTVYLQMNSLKPEDTAVYYCAARSSPWYTRYRSSELFDYWGQGTQVTVSS”, for which the “polyreactivity (PSR sort gate)” value is “high polyreactivity”.

Consider “QVQLVESWGGLVQAGGSLRLSCAASGLIFNYYAMGWYRQAPGKERELVAAITTGGGTYYADSVKGRFTISRDNAKNTVYLQMNSLKPEDTAVYYCAAVWGNRSRYPGHYYWGQGTQVTVSS”, for which the “polyreactivity (PSR sort gate)” value is recorded as “high polyreactivity”.

On to “QVQLVESWGGLVQAGGSLRLSCAASGRIFANYGMGWYRQAPRKERELVAAIDRSGGTTFYADSVKGRFTISRDNAKNTVYLQMNSLKPEDTAVYYCAAALSYWYYAYYYWGQGTQVTVSS”, for which the “polyreactivity (PSR sort gate)” value is “low polyreactivity”.

Regarding “QVQLVESWGGLVQAGGSLRLSCAASGRIFKLYAMGWYRQAPGKERELVAGINWSGGTTYYAESVKGRFTISRDNAKNTVYLQMNSLKPEDTAVYYCAARTRNGAGYYWGQGTQVTVSS”, the “polyreactivity (PSR sort gate)” value is reported as “high polyreactivity”.

Turning to “QVQLVESWGGLVQAGGSLRLSCAASGRTFDRYDMGWYRQAPGKERELVATISSSGGSTYYADSVKGRFTISRDNAKNTVYLQMNSLKPEDTAVYYCAADPSGDYWGQGTQVTVSS”, the “polyreactivity (PSR sort gate)” value is reported as “low polyreactivity”.

Consider “QVQLVESWGGLVQAGGSLRLSCAASGRTFVTNAMGRYRQAPGTERELVAAISGSGGSTYYADSVTGRFTISRDNAKNTVYLQMNSLKPEDTAVYYCATSYSLGYARYGYWGQGTQVTVSS”, for which the “polyreactivity (PSR sort gate)” value is “high polyreactivity”.

As to “QVQLVESWGGLVQAGGSLRLSCAASGSTFFSYAMGWYRQAPGKERELVAGIEWNGGDTNYADSVKGRFTISRDNAKNTVYLQMNSRKPVDTAVYYCATDYSYPGPFRRRERFDYWGQGTQVTVSS”, the “polyreactivity (PSR sort gate)” value was “low polyreactivity”.

With “QVQLVESWGGLVQAGGSLRLSCAASGSTFIGYAMGWYRQAPGKERELVAAISWSGGSTYYADSVKGRFTISRDNAKNTVYLQMNSLKPEDTAVYYCAASQYVQGHKYYYWGQGTQVTVSS”, the “polyreactivity (PSR sort gate)” value is “high polyreactivity”.

“QVQLVESWGGLVQAGGSLRLSCAASGSTFIQNAMGWYRQAPGKERELVAAITSGGGTNYADSVKGRFTISRDNAQNTVYLQMNSLKPEDTAVYYCAAEPFNYDDFWFGWEYQYEYWGQGTQVTVSS”: the “polyreactivity (PSR sort gate)” value is given as “low polyreactivity”.

For “QVQLVESWGGLVQAGGSLRLSCAASGSTFRGNAMGWYRQAPGTERELVAAITRRGGSTYYADSVKGRFTISRDNAKNTVYLQMNSLKPEDPAVYYCAKVGRETEYDYWGQGTQVTVSS”, the “polyreactivity (PSR sort gate)” value is on record as “high polyreactivity”.

“QVQLVESWRGLVQAGGSLRLSCAASGNTFRWYAMGWYRQEPGKEREFVADITVRGGSTYYADSLKGRFTISRDNAKNTVYLQMNSLKPEQTAVYYCAVDFRRYPGFDYWGQGTQVTVSS”: the “polyreactivity (PSR sort gate)” value is reported as “low polyreactivity”.

Take “QVQLVETAGGLVQAGGSLRLSSAASGRIFPFNTMGWSRQAPGKERELVATITYRGDRTYYADSVKGRFTISRDNAKNTVYLQMNSLKPEDTGVYYCNARGTYYLGRYYWGQGTQETVSS”: the “polyreactivity (PSR sort gate)” value is recorded as “high polyreactivity”.

In the case of “QVQLVETCGGLVHAGGSLRLSCAASGSTFVDNSMGRYRQAPGKERELGADISWSGGSTYYADSVKGRFTNSRDNAKTTVYLQMNSLKPQDTAVYYCAAYRNDYGYWTYVYYTDDYDYWGQGTQVTVSS”, the “polyreactivity (PSR sort gate)” value is “low polyreactivity”.

Consider “QVQLVETGAGLVQAGGSLRLSCGASGLTFARYAMGWYRQAPGKERELVAGIDSTGGTTYYADSVKGRFTISRDNAKNTVYLQMNSLKPVDTAVYYCYYWGLGTQVTVSS”, for which the “polyreactivity (PSR sort gate)” value is reported as “low polyreactivity”.

“QVQLVETGGALVQAGGSLRLSCAASGFTFIDYTMGCYSQAPGKERELVARITDTGSTNYADSVKVRFTISRDNAKNTVYLQMNSLKQEDTAVYYCNKDDRNDRTIPGYDPEYDYWGQGTQVTVSS”: the “polyreactivity (PSR sort gate)” value was “low polyreactivity”.

As for “QVQLVETGGGLFQAGGSLRLSCAASGFIYSYAMGWYRQAPGKERELDAAISRSGGSTYYADSVKGRFTISRDNAKNTVYLQMNSLKPEDTAVYYCAARPNSNRYVRYGYWGQGTQVTVSS”, the “polyreactivity (PSR sort gate)” value is given as “high polyreactivity”.

As for “QVQLVETGGGLVHAGGSLRLSCAASGSIFDAYAMGWYRQAPGKERELFASITSGGRTNYADSVKGRFTISRDNAKNTVYLQMNSLKPEDTAVYYCAKVRTRATPGLDYYYWGQGTQVTVSS”, the “polyreactivity (PSR sort gate)” value was “high polyreactivity”.

For the sequence “QVQLVETGGGLVQAGGRLRLSCAASGITFYFNTMGWYRPAPGKERELVASISGGSSTYYADSVKGRFPISRDNAKNTVYLQMISLKREDTAVYYCNAQGSLFRGWFDYDYWGQGTQVTVSS”, the “polyreactivity (PSR sort gate)” value is reported as “low polyreactivity”.

As for “QVQLVETGGGLVQAGGSHRLSCAASGFIIPYYAKGWSRQPPGKERELLAAIDSGGSTNYADSVKGRFTISRDNAKNTVSLQMNRLIPEDTAVYYCAVPSYGVNIWGGFDEYNYWGQGTQVTVSS”, the “polyreactivity (PSR sort gate)” value is given as “high polyreactivity”.

Regarding “QVQLVETGGGLVQAGGSLGLSCAASGRTFGVNAMGWYRQAPGKERELVAAITRGGNTYYADSVKGRFTISRDNAKNTVYLQMNSLKPEDTAVYYCAATGWLRIDRPYTYTYGYWGQGTQVTVSS”, the “polyreactivity (PSR sort gate)” value was “high polyreactivity”.

As to “QVQLVETGGGLVQAGGSLRISCAASGFIFPSYAMGWYRQAPGKERELVAAITSGGRTYYADSVKGLFTISRDNAKKTVYLQMNSLKPEDYAVYYCAAKSHSKTGTRYYYCGQGTQVTVSS”, the “polyreactivity (PSR sort gate)” value is “high polyreactivity”.

“QVQLVETGGGLVQAGGSLRLCCAASGRIFWYNAMGWYRPAPGKERELVAAISSIDGTTYYADSVKGRFTISRDNAKNTVYLQMNSLKPEDTAVYYCAAEDPADQYDYWGQGTQVTVSS”: the “polyreactivity (PSR sort gate)” value was “high polyreactivity”.

The record behind these values is the nanobody polyreactivity screen of Harvey et al. (2022).
